In the nanobody polyreactivity screen of Harvey et al. (2022):

Experiment: yeast display, Sf9 membrane polyspecificity reagent, FACS + sequencing; frameworks hold sequencing errors
Procedure, shortened: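 After 36–48 hours of galactose induction, yeast (Saccharomyces cerevisiae BJ5465) displaying a synthetic nanobody library were stained at 4 °C for 1 hour with 10% biotinylated, detergent-solubilized Sf9 membrane reagent. Streptavidin microbeads enriched the stained cells before FACS sorting into low and high (top ~1%) gates on anti-HA and streptavidin fluorescence. Each clone's polyreactivity label reflects its gate of origin.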

Sequence	polyreactivity (PSR sort gate)
QVQLVESGGGLVQAGGSLRLSCAASGFIFYSNAMGWYRQAPGKERELVAAISRGGGSTYYADSVKGRITISRDNAKNTVYLQMNSLIPVDTAVYYCAKRRLSPQDDYWGQGTQVTVSS	high polyreactivity
QVQLVESGGGLVQAGGSLRLSCAASGFTFEYYAMGWYRQAPGKERELVAAIRSDSGTNYADSVKGRFTISRDNAKNTVYLQMNSLIPEDTAVYYCAAPTVVLIDYDYWGQGTQVTVSS	low polyreactivity
QVQLVESGGGLVQAGGSLRLSCAASGLTFYNNAMGWYRQAPGKERELVARISSGGSTYYADSVKGRFTISRDNAKNTVYLQMNSLKPEDTAVYYCAAGRGYWWWYGYDYWGQGTQVTVSS	low polyreactivity
QVQLVESGGGLVQAGGSLRLSCAASGGTFRPNAMGLYRQAPGKERELVAAISYTGSTYYADSVKGRFTISRDNAKYTVYLQMNSMKPEDTAVYYCAAYGYHRYYLYDYWGQGTQVTVSS	low polyreactivity
QVQLVESGGGLVQAGGSLRLSCAASGRTFIGYAMGWYRQAPGKERELVAAISSSGGRTYYADSVKGRFTISRDNAKNTVYLQMNSLKPEDTAVYYCATGSWARDYYYWGQGTQVTVSS	high polyreactivity
QVQLVESGGGLVQAGGSLRLSCAASGRIFYPYAMGWYRQAPGKERELVALISWGGGSTYYADSVKGRFTISRDNAKNTVYLQMNSLKPEDTAVYYCAASYVGYWYRRGYGYWGQGTQVTVSS	high polyreactivity
QVQLVESGGGLVQAGGSLRLSCAASGGTFPFNAMGRYRQAPGKEREFVAAISFRGGSTYYADSVKGRFTISRDNAKNTVYLQMNSLKPEDTAVYSCAAYRLRPRNGVYRMDYWGQGTQVTVSS	high polyreactivity
QFQLVESGGGLVQAGGSLRLSCAASGRTFRGYAMGWYRQAPGKERELVPAITWRGGSTYYADSVKGRFTISRDNAKNTVYLQMKSLKPEDTAVYYCNTLVWSYLGGYYSRYDYWGQGTQVTVSS	high polyreactivity
QVQLVESGGGLVQAGGSLRLSCAASGRTFEQYSMGWYRQAPGKERELVAAISGSGGSTFYADSVKGRFTISRDNAKNTVYLQMNSLKPEDTAVYYCNAPGDGYLYDHTYDYWGQGTQVTVSS	low polyreactivity
QVQLEESGGGLVQAGGSLRLSCAASGSTFGYYAMGWYRKAPGKERELVAAISRSGGSTYYADSVKGRFTISRDNAKNTVYLQMNSLKPEDTAVYYCAAKVYGAVYHYYYWGQGTQVTVSS	high polyreactivity
QVQIVESGGGLVQAGGSLRLSCAASGTFTYYAMGWYRQAPGKERELVAAITWRGGNTYYADSVKGRFTISRDNAKNTVYLQKNSLKPEDTEVYYCAASLWPDYEYDYWGQGTQVTVSS	low polyreactivity
QVQLVESGGGLVQAGGSLRLSCAASGFTFPYNAMGWYRQPPGKERELVAAISRGAGRTYYADSVKGRFTISRDNAKNTVYLQMNSLKQEDTAVYYCAKAPGQDTPYPYGYWGQGTQVTVSS	high polyreactivity
QDQLVESGGGLVQAGVSLRLSCAASGRTIRHNPMGWYIQAPGKERELVATINRGGNTYYADSVKGRFTISRDNAKNTVYLQMISLKPEDTAVYYCAARRSFLFDDGNYWGQVTQVTVSS	low polyreactivity
QVQLVESGGGLVQAGGSLRLSCAASGSIFAKYAMGWYRQAPGKERELVAAITYSSSSTYYADSVKGRFTISRDNAKNTVYLQMNSLKPEDTAVYYCAARKKARGHGGNDYWGQGTLVTVSS	high polyreactivity
QVQLVESGGGLVQAGGSLRLSCAASGSIFTKYAMGWYRQAPGKERELVAAITWSGGRTYYADSVKGRFTISRDNAKNTVYLQMNSLKPEDTAVYYCAADFFRQGYYYWGQGTQVTVSS	high polyreactivity
QVQLVESGGGLVQAGGSLRLSCAASGSTFRGNAMGWSRQAPGKERELVAAISSSGGSTYYADSVKGRFTISRDNAKNTVYLQMNSLKPEDTAVYYCAALYHWTYDYWGQGTQVTVSS	low polyreactivity
QVQLVESGGGLVQAGGSLRLSCAASGRIFLYYAMGWYRQAPGKERELVAAITSSGGGTYYADSVKGRFTISRDNAKNTVYLQMNSLKPEDTAVYYCAARRRSQWRYYYWGQGTQVTVSS	high polyreactivity
QVQLVESGGGLVQAGGSLRLSCAASGRTFNSYAMGWYRQSPGKERELVADITSSGGSTYYADSVKGRFTISRDNAKNTVFLQMNSLIPEDTALYYCAADGYTRLPTYLRVNHRSLDYWGQGTQVTVSS	low polyreactivity
QVQLQESGGGLVQAGGSLRLSCAASGSIFHLHIMCWYSQAPGKERESVAAISYGTSTYFADSVKGRFTICRDNAKNTVYLQMNSPKPYDTAVYYCAALFLVSKHHHYWGEGTQVTVSS	low polyreactivity
QVQLVESGGGLVQSGGSLRLSCAASGGSFTFYAMGWYRQAPGKERELVATINWSGGSTYYADSVKGRFTISRDNAKNTVYLQMNSLKPEDTAVYYCNAAWPYKSVEYWGQGTQVTVSS	low polyreactivity
QVQLVESGGGLVQAGGSLRLSCAASGSIFVRNTMGWYRQAPGKERELVATISSGGRTYYADSVKGRFTISRDNAKNTVYLQMNSLKPEDTAVYYCAAGYSYAQYSYPFLSFAFGYWGQGTQVTVSS	high polyreactivity
QVQLVESGGGLVQAGCSLRLSCAASGLTFHWYTMGWYRQAPGKERELVATINSGGSTDYADSVKGRFTISRDNAKNTVYLQMNSLKPEDTAVYYCNAEYGYSGVGDDYWGQGTQVTVSS	low polyreactivity

Sequence	polyreactivity (PSR sort gate)
QVQLGESGGGLVQAGGSLRLICAASGSTFWTNDMGWYRQAPGKERELVAPISQSAGDTYYADSVKARFTISRDNSKNTFYLQMISLKPEDTAVYYCAADLVFYPFTWDGYYYWGQGTQVTVSS	low polyreactivity
QVQLVESGGGLFQAGGSLRLSCAASGSIFAWYAMGWYRQAPGKERELVAVITSGGSTNYADSVKGRFTISRDNEKNTVYLQMNSLKPEDTAVYYCAAGSYYSWYPFDYWGQGTQVTVSS	low polyreactivity
QVQLVESGGGLVQAGGSLRLSCAAYGLIFAISAMGWYRQAPGKERELVAAIRWSGASTYADSVKGRFTISRDNAKNTVYLQMNSLKTEDTAVYYCAADDLLHYDYWGQGTQVTVSS	low polyreactivity
QVQLVESGGGLVQEGGSLRLSCAASGSTFKYYAMGWYRQAPGKERELVAAISKGATRTYYADSVKGRFTISRDNAKNTVYLQMNSLKPEDTAVYYCAARGRWNVPARRDYWGQGTQVTVSS	high polyreactivity
QVQLVESGGGLVQAGGSLRLSCAASGSTFITNTMGWYRQAPGKERELVAAISKSGGSTYYADSVKGRFTISRDNAKNTVYLKMNSLKAEDTAVYYCAADIYVRDRGVKYDYWRQGTQVTVSS	low polyreactivity
QVQLVESGGGLVQAGGSLRLSCAASGSTVNKYAMGWYRHAPGKERELVAAITTSGGRTYYADSVKGRFTISRDNAKNTVYLQMNSLKPEDTAVYYCNARIRRNYAYPKGESWGQGTQVTVSS	high polyreactivity
QVQLVESGGGLVQAGGSLRLSCAASGSTFDVYAMGWYIQAPGKERELVASIRWSGGSTNYADSVKGRFTISRDNAKNTVYLQMNSLKPEDTAVYYCNADVGTGFRPGQYDYWGQGTQVTLSS	low polyreactivity
QVQLVESGGGLVKAGGSLRLSCAASGRTFLRNAMGWYRQAPGKERELVATITRGGSTYYADSVKGRFTISRDNAKYTCYLEIISLIPEDTAVYYCAKDITGGFRRPDYGYLGQGTQVTVSS	low polyreactivity
QVQLVESGGGLDQAGGSLRLSCAASGKTFGNYGMGWYRQAPGKERELVAAISWTGGSTYYADSVKGRFTISRDNAKNTVYLQMNSMKPEDTAVYSCNKRPYLLFDYWGQGTQVTVSS	high polyreactivity
QVQLVESGGGLVQAGGRLRLSCADSGRIFVKNTMGWYRQAPGKERELVAAISWSGGSTYYADSVKGRFTISRDNAKNTVYLQMNSLKPEDTAVYYCNARKRTKLSYPKFDYWGQGTQVTVSS	high polyreactivity
QVQLVESGGGLVQAGGSLRLSCAASGRTLDSNAMGWYRQAPGKERELVAAISSAGSTNYADSVKGRFTISRDNAKNTVYLQMNRLQPEDTAVYYCAADLIGSHDYWGQGTQVTVSS	low polyreactivity
QVQHVESGGGLVQAGGSLRLSCAASGFIFAWYTMGWDRQAPGKERELVAAISRSGVRTYYADSVKGRFTISRDNAKNTVYLQMNSLKPEDTAVYYCAVDWYPTMDYWGQGTQVTLSS	high polyreactivity
QDQLVESGGGLVQAGGSLRLSCAASGRIFRSYAMGWYRQAPGKERELVAAINTGGITYYADSVKGRFTISRDNAKNTVYLQMNSLKPEDTAVYYCNTYILSRMNYWGQCTQVTVSS	high polyreactivity
QVQLVESGGGLVQAGGSLRLICAASGIIFNYNAMGWYRQAPGNERELVATISSGDSTNYADSVKGRFTISRDNAKNTVYLQMNSLKPEDTAVYYCAAESPSVFEGYAQLYIILEDYWGQGTQVTVSS	low polyreactivity
QVQVVESGGGIVKAGGSLRLSCAPSGSTFYYYAMGWYRQAPRKERELVATISWSGDSTYADSVKGRFTISRDNSKNTVYLQLTSLKPEDTAVYYCATCGDWWGFRYDYWGQCTQVTVSS	low polyreactivity
QVQLVESGGGLVQAGGSLRLSCAASGNTFTRNTMGWYRQAPGKERELVASISLSGASTYYADSVKGRFTISRDNAKNTVYLQMNSLKPEDTAVYYCAKRRSYGYYRAYNYWGQGTQVTVSS	high polyreactivity
QVQLVESGGGLVQAGGSLRLSCAASGFIFHTTVMVSYRQAPAKERELVAAISSGDSTYYADSVKGRFTISRDNAKNTVYLHMNSLKPEDTEVYYCARNVNAQKVLGGFDSWGQGTQVTVSS	low polyreactivity
QVQLGESGGGLVQAGGSLRLSCAASGSIFSRYTMGWYREAPGKERELVAAITSSGGRTYYADSVKGRFTISRDNAKNTVYLQMNRLKAEDTAVYYCAARYFSSFPLYYYWGQGTQVTVSS	high polyreactivity
QVQLVESGGGLVQAGGILRLSCAASGSIYYAMGWYRQAPGKERELVAGINSSGSTNYADSVKGRFTISRDNAKNTVYLQMNSLKPEDTAVYYCAARAIVSFDYWGQGTQVTVSS	low polyreactivity
QVQLVESGGGLVQAGGSLRLSCAASGSTFYYYSMGWNRQAPGKERELVAAISYRGGTTYYADSVKGRFTISRDNAKNTVYLQMNSLKPEDTAVYYCAAGVSWYRPGSYTGGYWGQGTQVTVSS	high polyreactivity
QVQLVESGGGLVQAGGSLRLSCAASGRTFYSYAMGWYRQAPGKERELVAAISYTGASTFYADSVKGRFTISRDNAKNTVYLQMNSLKPEDTAVYYCAARKVRFGVDYWGPGTQVTVSS	high polyreactivity
